The target of this experiment is T1, TLR4 (Mus musculus, UniProt Q9JHF9+Q9QUK6).
T1 sequence (Q9QUK6 26-835): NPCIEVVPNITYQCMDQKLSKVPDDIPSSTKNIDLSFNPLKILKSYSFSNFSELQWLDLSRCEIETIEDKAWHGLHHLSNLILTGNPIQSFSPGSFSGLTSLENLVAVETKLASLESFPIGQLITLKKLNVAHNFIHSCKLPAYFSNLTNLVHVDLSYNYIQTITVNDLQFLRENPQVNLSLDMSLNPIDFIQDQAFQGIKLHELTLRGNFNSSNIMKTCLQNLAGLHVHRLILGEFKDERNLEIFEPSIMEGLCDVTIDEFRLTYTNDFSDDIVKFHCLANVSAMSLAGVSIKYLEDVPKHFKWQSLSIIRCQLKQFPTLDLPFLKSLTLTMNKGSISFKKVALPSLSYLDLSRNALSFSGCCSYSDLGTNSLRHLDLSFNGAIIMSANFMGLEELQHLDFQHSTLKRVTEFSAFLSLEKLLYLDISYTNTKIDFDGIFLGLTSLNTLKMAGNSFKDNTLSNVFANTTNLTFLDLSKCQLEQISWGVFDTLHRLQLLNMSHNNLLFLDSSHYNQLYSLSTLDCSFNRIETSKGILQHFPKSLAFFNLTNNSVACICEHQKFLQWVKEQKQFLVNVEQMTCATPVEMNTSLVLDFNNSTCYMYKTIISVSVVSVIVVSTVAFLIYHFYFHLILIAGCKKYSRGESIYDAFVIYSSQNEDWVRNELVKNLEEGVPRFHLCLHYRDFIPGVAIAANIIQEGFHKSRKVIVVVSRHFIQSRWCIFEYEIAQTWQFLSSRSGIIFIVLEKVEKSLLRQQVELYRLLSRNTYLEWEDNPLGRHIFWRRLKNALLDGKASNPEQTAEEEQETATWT
T1 sequence (Q9JHF9 19-160): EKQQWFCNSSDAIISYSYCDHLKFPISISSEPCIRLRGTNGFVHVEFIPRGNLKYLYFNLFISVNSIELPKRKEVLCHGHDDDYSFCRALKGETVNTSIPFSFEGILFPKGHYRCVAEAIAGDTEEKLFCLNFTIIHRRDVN
The experiment is described as follows: NFκB-luciferase reporter assay in HEK 293 cells stably expressing TLR4, MD2 and/or CD14. The class given is cell-based, murine. Further details: expressed in transfected cells; host or cells: HEK 293. As for the experimental part:
Model ECM environment. Tissue culture plates were coated with ECM as follows. PAEC were seeded into 6-well (3×10^5 cells/well), 24-well (5×10^4 cells/well) or 100 mm (2×10^5 cells) fibronectin-coated tissue culture plates (BD Biosciences, San Jose, Calif.) in DMEM (Invitrogen) containing 10% fetal bovine serum supplemented with penicillin and streptomycin and 4% w/v of Dextran 40. The cell cultures were incubated at 37° C. in 5% CO2 humidified atmosphere for seven days and were supplemented with […] on day three and day five. After 7 days, endothelial cells were washed once with phosphate buffered saline (PBS) and lysed by exposure to 0.5% w/v Triton X-100 and 20 mM NH4OH in PBS (pH 7.4) at 37° C. for 20 minutes (Bonifacino, 1998). The wells were then washed 4 times with PBS (pH 7.4) and inspected microscopically to ensure removal of the cells. Plates were used immediately or were stored in PBS (pH 7.4) with […] at 4° C.
HEK 293 cells were stably transfected with the TLR4 and MD2 or CD14 expression plasmids using Superfect (Qiagen, Valencia, Calif.) following the manufacturer's instructions. HEK 293 cells expressing TLR4 and MD2 or CD14 were obtained by culturing the transfected cells with appropriate antibiotic selection medium, and were cloned by limiting dilution in the selection medium. HEK 293 cells expressing TLR4, MD2 and CD14 were generated by transfecting HEK 293 cells that expressed TLR4 and MD2 with the CD14 expression plasmid, and selecting clones using appropriate antibiotic containing medium. Cell lines expressing TLR4 and MD2 and/or CD14 were then maintained in DMEM supplemented with 10% fetal bovine serum and the appropriate selection antibiotics. Control cell lines were transfected with empty expression vectors and incubated in selection conditions as described above. Selected clones were tested for cell surface expression of the TLR4/MD2 complex and CD14 by flow cytometry using monoclonal antibodies specific for the TLR4/MD2 complex or CD14.
NFκB-luciferase reporter assays. Activation of NFκB was measured using a NFκB-luciferase reporter assay. HEK 293 cell lines stably expressing TLR4, MD2 and/or CD14, or control cells were seeded into 24 well tissue culture plates (2×10^5 cells/well) in 1.0 ml DMEM containing 10% fetal bovine serum and penicillin and streptomycin. The cells were allowed to adhere to the culture wells at 37° C. overnight and were then transfected with […] NFκB-firefly-luciferase using Superfect Transfection Reagent (Qiagen). Following transfection, the cells were washed once with phosphate buffered saline and cultured for 24 hours at 37° C. in 1.0 ml DMEM containing 0.5% fetal bovine serum. After various treatments, the culture medium was aspirated and the cells were washed once with PBS. The cells were lysed in […] Passive Lysis Buffer (Promega) with rocking at room temperature for 15 minutes. Renilla- and Firefly-luciferase were assayed simultaneously using the Dual-Luciferase Reporter Assay System (Promega) and a TD-20/20 luminometer (Turner Designs, Sunnyvale, Calif.). Activation of NFκB was reported as a ratio of the firefly luciferase activity to the constitutively expressed Renilla luciferase internal control, and is the mean of triplicate wells.
To determine whether and under what conditions HS stimulates TLR4, various combinations of TLR4, MD2 and CD14, components of the putative TLR4 receptor complex, were stably expressed in HEK 293 cells and the effect of HS on TLR4 signaling in the transfected cells was examined (FIG. 1). The HEK 293 cells expressing receptor components were transiently transfected with a NFκB-firefly luciferase reporter construct along with a Renilla-luciferase internal control reporter construct. […]
In general terms: A reporter such as luciferase makes a cellular process visible.

Where [1] appears, read: HEK 293 cells lacking TLR4 and MD2 or CD14.
[2] abbreviates: HEK 293 cells that expressed TLR4, MD2, and CD14.

Results on 3 substances are retold here after patent US20100158808A1, “Altered Activity of Toll-Like Receptors” (priority 2003, published 2010).

With “elastase: pancreatic elastase (Calbiochem; type IV porcine pancreatic elastase, Sigma-Aldrich), protease that cleaves ECM proteins”, the “NFκB reporter response to elastase alone” value by setting is: (HEK/TLR4(+) cells cultured in ECM, elastase 0.1 U/ml, no HS) “did not respond”; (HEK/TLR4(+) cells cultured on ECM, elastase 0.3 U/ml) “responded even without addition of HS”. For the same substance, the “Activation in response to HS relative to cells not treated with elastase” value (HEK/TLR4(+) cells on ECM, elastase 0.1 U/ml plus HS) came out at 2 fold. The “Activation of reporter expression after elastase pre-treatment and treatment with HS or LPS” value (HEK/TLR4(+) cells on PAEC ECM, versus control cells not pre-treated) was “greater”. Moreover, the “NFκB reporter response to elastase” value (HEK/TLR4(+) cells on fibronectin, elastase 0.1 or 0.3 U/ml) is reported as “did not respond to either concentration of elastase”.

As to heparan sulfate [HS], the “Activation of NFκB-luciferase reporter” value is given as “did not respond” under setting [1] and “activated” under setting [2].

lipopolysaccharide [LPS]: the “Activation of NFκB-luciferase reporter” value was “did not respond” under setting [1] and “activated” under setting [2]. For the same substance, the “Effect of nitrous acid treatment on ability to stimulate TLR4” value (HEK/TLR4(+) cells, nitrous acid pH 4.0 or pH 1.5) is “did not affect”.
